Assay results: PMC4841080

Assays:
Conditions in all cases: glycan lost; control: wild type
[1] = Western blot of Ni-NTA-concentrated conditioned medium
[2] = Western blot of cell lysates
[3] = Immunofluorescence co-staining with Golgi marker GRASP65

B1: R-spondin1 (RSPO1): N137Q (protein)
parent chain: MRLGLCVVALVLSWTHLTISSRGIKGKRQRRISAEGSQACAKGCELCSEVNGCLKCSPKLFILLERNDIRQVGVCLPSCPPGYFDARNPDMNKCIKCKIEHCEACFSHNFCTKCKEGLYLHKGRCYPACPEGSSAANGTMECSSPAQCEMSEWSPWGPCSKKQQLCGFRRGSEERTRRVLHAPVGDHAACSDTKETRRCTVRRVPCPEGQKRRKGGQGRRENANRNLARKESKEAGAGSRRRKGQQQQQQQGTVGPLTSAGPA
expression_or_secretion [1]: increases
expression_or_secretion [2]: increases
localisation_or_trafficking [3]: no change
